Molecular target: T1, trypsin (Bos taurus, UniProt P00760)
T1 construct: gene PRSS1
T1 sequence (P00760 24-246): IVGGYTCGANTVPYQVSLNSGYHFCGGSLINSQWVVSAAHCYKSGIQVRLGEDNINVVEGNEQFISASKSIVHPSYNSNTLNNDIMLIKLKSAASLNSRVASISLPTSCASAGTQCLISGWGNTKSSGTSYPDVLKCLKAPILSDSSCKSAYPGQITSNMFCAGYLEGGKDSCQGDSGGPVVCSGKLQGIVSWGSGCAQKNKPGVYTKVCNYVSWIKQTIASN
Assay: Hydrolysis of fluorogenic protease substrate by purified enzyme (trypsin), fluorescence intensity
Format: biochemical
Settings: for Average ratio w/ trypsin to w/o trypsin: average over emission 570-585 nm
Method: Enzymatic hydrolysis of the substrate from Example 1 was carried out in 50 mM carbonate buffer, pH 8.9 at room temperature. Fluorescence intensity of the solution prior to treatment with trypsin and after treatment with trypsin is shown in Table 1, for excitation wavelengths of 360 nm, 522 nm, 530 nm, and 553 nm, respectively. […] This is a characteristic of dye dimerization or stacking, as described above. […] Both the fluorescence and absorption results provided convincing evidence that ground-state interactions existed between dye molecules in the conjugate and became diminished after enzymatic cleavage.

[1] = Excitation 530 nm, emission 570 nm
[2] = Excitation 530 nm, emission 571 nm
[3] = Excitation 530 nm, emission 572 nm
[4] = Excitation 530 nm, emission 573 nm
[5] = Excitation 530 nm, emission 574 nm
[6] = Excitation 530 nm, emission 575 nm
[7] = Excitation 530 nm, emission 576 nm
[8] = Excitation 530 nm, emission 577 nm
[9] = Excitation 530 nm, emission 578 nm
[10] = Excitation 530 nm, emission 579 nm
[11] = Excitation 530 nm, emission 580 nm
[12] = Excitation 530 nm, emission 581 nm
[13] = Excitation 530 nm, emission 582 nm
[14] = Excitation 530 nm, emission 583 nm
[15] = Excitation 530 nm, emission 584 nm
[16] = Excitation 530 nm, emission 585 nm
[17] = Excitation 553 nm, emission 570 nm
[18] = Excitation 553 nm, emission 571 nm
[19] = Excitation 553 nm, emission 572 nm
[20] = Excitation 553 nm, emission 573 nm
[21] = Excitation 553 nm, emission 574 nm
[22] = Excitation 553 nm, emission 575 nm
[23] = Excitation 553 nm, emission 576 nm
[24] = Excitation 553 nm, emission 577 nm
[25] = Excitation 553 nm, emission 578 nm
[26] = Excitation 553 nm, emission 579 nm
[27] = Excitation 553 nm, emission 580 nm
[28] = Excitation 553 nm, emission 581 nm
[29] = Excitation 553 nm, emission 582 nm
[30] = Excitation 553 nm, emission 583 nm
[31] = Excitation 553 nm, emission 584 nm
[32] = Excitation 553 nm, emission 585 nm

Substance: TMR-Val-Pro-Arg-Gly-Lys-TMR (XPRGX; not fully specified; TMR dye at both ends) [T-VPRGK-T]
- Average ratio w/ trypsin to w/o trypsin (Excitation 530 nm): 27
- Fluorescence intensity w/ trypsin [1]: 46615
- Fluorescence intensity w/o trypsin [1]: 1687
- ratio w/ trypsin to w/o trypsin [1]: 28
- Fluorescence intensity w/ trypsin [2]: 48314
- Fluorescence intensity w/o trypsin [2]: 1718
- ratio w/ trypsin to w/o trypsin [2]: 28
- Fluorescence intensity w/ trypsin [3]: 49955
- Fluorescence intensity w/o trypsin [3]: 1819
- ratio w/ trypsin to w/o trypsin [3]: 27
- Fluorescence intensity w/ trypsin [4]: 50871
- Fluorescence intensity w/o trypsin [4]: 1844
- ratio w/ trypsin to w/o trypsin [4]: 28
- Fluorescence intensity w/ trypsin [5]: 52163
- Fluorescence intensity w/o trypsin [5]: 1904
- ratio w/ trypsin to w/o trypsin [5]: 27
- Fluorescence intensity w/ trypsin [6]: 52681
- Fluorescence intensity w/o trypsin [6]: 1895
- ratio w/ trypsin to w/o trypsin [6]: 28
- Fluorescence intensity w/ trypsin [7]: 52855
- Fluorescence intensity w/o trypsin [7]: 1968
- ratio w/ trypsin to w/o trypsin [7]: 27
- Fluorescence intensity w/ trypsin [8]: 53752
- Fluorescence intensity w/o trypsin [8]: 1939
- ratio w/ trypsin to w/o trypsin [8]: 28
- Fluorescence intensity w/ trypsin [9]: 53611
- Fluorescence intensity w/o trypsin [9]: 1970
- ratio w/ trypsin to w/o trypsin [9]: 27
- Fluorescence intensity w/ trypsin [10]: 53534
- Fluorescence intensity w/o trypsin [10]: 2026
- ratio w/ trypsin to w/o trypsin [10]: 26
- Fluorescence intensity w/ trypsin [11]: 53414
- Fluorescence intensity w/o trypsin [11]: 1973
- ratio w/ trypsin to w/o trypsin [11]: 27
- Fluorescence intensity w/ trypsin [12]: 53190
- Fluorescence intensity w/o trypsin [12]: 1985
- ratio w/ trypsin to w/o trypsin [12]: 27
- Fluorescence intensity w/ trypsin [13]: 52569
- Fluorescence intensity w/o trypsin [13]: 1948
- ratio w/ trypsin to w/o trypsin [13]: 27
- Fluorescence intensity w/ trypsin [14]: 51719
- Fluorescence intensity w/o trypsin [14]: 1926
- ratio w/ trypsin to w/o trypsin [14]: 27
- Fluorescence intensity w/ trypsin [15]: 50705
- Fluorescence intensity w/o trypsin [15]: 1905
- ratio w/ trypsin to w/o trypsin [15]: 27
- Fluorescence intensity w/ trypsin [16]: 49629
- Fluorescence intensity w/o trypsin [16]: 1820
- ratio w/ trypsin to w/o trypsin [16]: 27
- Average ratio w/ trypsin to w/o trypsin (Excitation 553 nm): 25
- Fluorescence intensity w/ trypsin [17]: 82385
- Fluorescence intensity w/o trypsin [17]: 3301
- ratio w/ trypsin to w/o trypsin [17]: 25
- Fluorescence intensity w/ trypsin [18]: 85120
- Fluorescence intensity w/o trypsin [18]: 3402
- ratio w/ trypsin to w/o trypsin [18]: 25
- Fluorescence intensity w/ trypsin [19]: 87845
- Fluorescence intensity w/o trypsin [19]: 3457
- ratio w/ trypsin to w/o trypsin [19]: 25
- Fluorescence intensity w/ trypsin [20]: 89719
- Fluorescence intensity w/o trypsin [20]: 3658
- ratio w/ trypsin to w/o trypsin [20]: 25
- Fluorescence intensity w/ trypsin [21]: 91555
- Fluorescence intensity w/o trypsin [21]: 3649
- ratio w/ trypsin to w/o trypsin [21]: 25
- Fluorescence intensity w/ trypsin [22]: 93001
- Fluorescence intensity w/o trypsin [22]: 3802
- ratio w/ trypsin to w/o trypsin [22]: 24
- Fluorescence intensity w/ trypsin [23]: 94046
- Fluorescence intensity w/o trypsin [23]: 3827
- ratio w/ trypsin to w/o trypsin [23]: 25
- Fluorescence intensity w/ trypsin [24]: 94816
- Fluorescence intensity w/o trypsin [24]: 3816
- ratio w/ trypsin to w/o trypsin [24]: 25
- Fluorescence intensity w/ trypsin [25]: 94516
- Fluorescence intensity w/o trypsin [25]: 3806
- ratio w/ trypsin to w/o trypsin [25]: 25
- Fluorescence intensity w/ trypsin [26]: 94662
- Fluorescence intensity w/o trypsin [26]: 3962
- ratio w/ trypsin to w/o trypsin [26]: 24
- Fluorescence intensity w/ trypsin [27]: 93715
- Fluorescence intensity w/o trypsin [27]: 3695
- ratio w/ trypsin to w/o trypsin [27]: 25
- Fluorescence intensity w/ trypsin [28]: 93189
- Fluorescence intensity w/o trypsin [28]: 3825
- ratio w/ trypsin to w/o trypsin [28]: 24
- Fluorescence intensity w/ trypsin [29]: 92281
- Fluorescence intensity w/o trypsin [29]: 3736
- ratio w/ trypsin to w/o trypsin [29]: 25
- Fluorescence intensity w/ trypsin [30]: 91125
- Fluorescence intensity w/o trypsin [30]: 3724
- ratio w/ trypsin to w/o trypsin [30]: 24
- Fluorescence intensity w/ trypsin [31]: 89415
- Fluorescence intensity w/o trypsin [31]: 3593
- ratio w/ trypsin to w/o trypsin [31]: 25
- Fluorescence intensity w/ trypsin [32]: 87910
- Fluorescence intensity w/o trypsin [32]: 3449
- ratio w/ trypsin to w/o trypsin [32]: 25
- fluorescence intensity of the cleaved substrate solution relative to the intact substrate solution (maximum) (excitation 360-553 nm, emission wavelengths from 570 to 585 nm): ≤ 29 times

— patent publication US7256012B2, “Fluorogenic protease substrates based on dye-dimerization” (3M Innovative Properties Company, priority 1997, dated 2007)
